Assay results published in patent publication US10858422B2, “Methods for treating systemic lupus erythematosus with an anti-apolipoprotein B antibody” (Abcentra, LLC, priority 2016, dated 2020).
“And” between values parts separate entries of the source, which are not always exact repeats. Equal values may be shown once. Read-outs that look alike come from different tables or passages of the source.

Key:
SLE ApoE−/− mice [1] = assay: Passive immunization: spleen cells and plasma biomarkers; type: in vivo, mouse
Experimental: (§1) SLE ApoE^−/− mice were treated with three weekly injections of either orticumab or an irrelevant antibody as control. Six-week old mice were fed with HFD, and were injected at weeks 18, 19 and 20 with orticumab (one dose of 1 mg per week, IP injections), and sacrificed for analysis in week 22. Plaque area and composition were determined in the aortic root.

[2] = tested on: monocyte chemoattractant protein 1, MCP-1; assay: In vitro inhibition of oxLDL-mediated cytokine release (MCP-1); type: cell-based
Experimental: The ability of orticumab to shut down macrophage pro-inflammatory activity locally in the plaque became the focus, as it was thought to be an important mechanism underlying its therapeutic activity. Initial hypothesis of using orticumab related to neutralizing oxLDL from the systemic compartment, which required 4 μg/mL=˜28 nM=11 mg of orticumab to neutralize 90% systemic oxLDL. Further in vitro assays provided an insight into the minimum effective concentration of orticumab needed to achieve 50% or 90% inhibition of oxLDL-mediated cytokine release (i.e., inhibition of monocyte chemoattractant protein 1, MCP-1): […]

SLE ApoE−/− mice [3] = assay: Passive immunization: plaque area and composition in aortic root, flat preps of aorta; type: in vivo, mouse
Experimental: as §1

oxidized LDL = oxidized LDL (Homo sapiens, UniProt P04114); settings: cited from earlier work
Chain of oxidized LDL (P04114 28-4563): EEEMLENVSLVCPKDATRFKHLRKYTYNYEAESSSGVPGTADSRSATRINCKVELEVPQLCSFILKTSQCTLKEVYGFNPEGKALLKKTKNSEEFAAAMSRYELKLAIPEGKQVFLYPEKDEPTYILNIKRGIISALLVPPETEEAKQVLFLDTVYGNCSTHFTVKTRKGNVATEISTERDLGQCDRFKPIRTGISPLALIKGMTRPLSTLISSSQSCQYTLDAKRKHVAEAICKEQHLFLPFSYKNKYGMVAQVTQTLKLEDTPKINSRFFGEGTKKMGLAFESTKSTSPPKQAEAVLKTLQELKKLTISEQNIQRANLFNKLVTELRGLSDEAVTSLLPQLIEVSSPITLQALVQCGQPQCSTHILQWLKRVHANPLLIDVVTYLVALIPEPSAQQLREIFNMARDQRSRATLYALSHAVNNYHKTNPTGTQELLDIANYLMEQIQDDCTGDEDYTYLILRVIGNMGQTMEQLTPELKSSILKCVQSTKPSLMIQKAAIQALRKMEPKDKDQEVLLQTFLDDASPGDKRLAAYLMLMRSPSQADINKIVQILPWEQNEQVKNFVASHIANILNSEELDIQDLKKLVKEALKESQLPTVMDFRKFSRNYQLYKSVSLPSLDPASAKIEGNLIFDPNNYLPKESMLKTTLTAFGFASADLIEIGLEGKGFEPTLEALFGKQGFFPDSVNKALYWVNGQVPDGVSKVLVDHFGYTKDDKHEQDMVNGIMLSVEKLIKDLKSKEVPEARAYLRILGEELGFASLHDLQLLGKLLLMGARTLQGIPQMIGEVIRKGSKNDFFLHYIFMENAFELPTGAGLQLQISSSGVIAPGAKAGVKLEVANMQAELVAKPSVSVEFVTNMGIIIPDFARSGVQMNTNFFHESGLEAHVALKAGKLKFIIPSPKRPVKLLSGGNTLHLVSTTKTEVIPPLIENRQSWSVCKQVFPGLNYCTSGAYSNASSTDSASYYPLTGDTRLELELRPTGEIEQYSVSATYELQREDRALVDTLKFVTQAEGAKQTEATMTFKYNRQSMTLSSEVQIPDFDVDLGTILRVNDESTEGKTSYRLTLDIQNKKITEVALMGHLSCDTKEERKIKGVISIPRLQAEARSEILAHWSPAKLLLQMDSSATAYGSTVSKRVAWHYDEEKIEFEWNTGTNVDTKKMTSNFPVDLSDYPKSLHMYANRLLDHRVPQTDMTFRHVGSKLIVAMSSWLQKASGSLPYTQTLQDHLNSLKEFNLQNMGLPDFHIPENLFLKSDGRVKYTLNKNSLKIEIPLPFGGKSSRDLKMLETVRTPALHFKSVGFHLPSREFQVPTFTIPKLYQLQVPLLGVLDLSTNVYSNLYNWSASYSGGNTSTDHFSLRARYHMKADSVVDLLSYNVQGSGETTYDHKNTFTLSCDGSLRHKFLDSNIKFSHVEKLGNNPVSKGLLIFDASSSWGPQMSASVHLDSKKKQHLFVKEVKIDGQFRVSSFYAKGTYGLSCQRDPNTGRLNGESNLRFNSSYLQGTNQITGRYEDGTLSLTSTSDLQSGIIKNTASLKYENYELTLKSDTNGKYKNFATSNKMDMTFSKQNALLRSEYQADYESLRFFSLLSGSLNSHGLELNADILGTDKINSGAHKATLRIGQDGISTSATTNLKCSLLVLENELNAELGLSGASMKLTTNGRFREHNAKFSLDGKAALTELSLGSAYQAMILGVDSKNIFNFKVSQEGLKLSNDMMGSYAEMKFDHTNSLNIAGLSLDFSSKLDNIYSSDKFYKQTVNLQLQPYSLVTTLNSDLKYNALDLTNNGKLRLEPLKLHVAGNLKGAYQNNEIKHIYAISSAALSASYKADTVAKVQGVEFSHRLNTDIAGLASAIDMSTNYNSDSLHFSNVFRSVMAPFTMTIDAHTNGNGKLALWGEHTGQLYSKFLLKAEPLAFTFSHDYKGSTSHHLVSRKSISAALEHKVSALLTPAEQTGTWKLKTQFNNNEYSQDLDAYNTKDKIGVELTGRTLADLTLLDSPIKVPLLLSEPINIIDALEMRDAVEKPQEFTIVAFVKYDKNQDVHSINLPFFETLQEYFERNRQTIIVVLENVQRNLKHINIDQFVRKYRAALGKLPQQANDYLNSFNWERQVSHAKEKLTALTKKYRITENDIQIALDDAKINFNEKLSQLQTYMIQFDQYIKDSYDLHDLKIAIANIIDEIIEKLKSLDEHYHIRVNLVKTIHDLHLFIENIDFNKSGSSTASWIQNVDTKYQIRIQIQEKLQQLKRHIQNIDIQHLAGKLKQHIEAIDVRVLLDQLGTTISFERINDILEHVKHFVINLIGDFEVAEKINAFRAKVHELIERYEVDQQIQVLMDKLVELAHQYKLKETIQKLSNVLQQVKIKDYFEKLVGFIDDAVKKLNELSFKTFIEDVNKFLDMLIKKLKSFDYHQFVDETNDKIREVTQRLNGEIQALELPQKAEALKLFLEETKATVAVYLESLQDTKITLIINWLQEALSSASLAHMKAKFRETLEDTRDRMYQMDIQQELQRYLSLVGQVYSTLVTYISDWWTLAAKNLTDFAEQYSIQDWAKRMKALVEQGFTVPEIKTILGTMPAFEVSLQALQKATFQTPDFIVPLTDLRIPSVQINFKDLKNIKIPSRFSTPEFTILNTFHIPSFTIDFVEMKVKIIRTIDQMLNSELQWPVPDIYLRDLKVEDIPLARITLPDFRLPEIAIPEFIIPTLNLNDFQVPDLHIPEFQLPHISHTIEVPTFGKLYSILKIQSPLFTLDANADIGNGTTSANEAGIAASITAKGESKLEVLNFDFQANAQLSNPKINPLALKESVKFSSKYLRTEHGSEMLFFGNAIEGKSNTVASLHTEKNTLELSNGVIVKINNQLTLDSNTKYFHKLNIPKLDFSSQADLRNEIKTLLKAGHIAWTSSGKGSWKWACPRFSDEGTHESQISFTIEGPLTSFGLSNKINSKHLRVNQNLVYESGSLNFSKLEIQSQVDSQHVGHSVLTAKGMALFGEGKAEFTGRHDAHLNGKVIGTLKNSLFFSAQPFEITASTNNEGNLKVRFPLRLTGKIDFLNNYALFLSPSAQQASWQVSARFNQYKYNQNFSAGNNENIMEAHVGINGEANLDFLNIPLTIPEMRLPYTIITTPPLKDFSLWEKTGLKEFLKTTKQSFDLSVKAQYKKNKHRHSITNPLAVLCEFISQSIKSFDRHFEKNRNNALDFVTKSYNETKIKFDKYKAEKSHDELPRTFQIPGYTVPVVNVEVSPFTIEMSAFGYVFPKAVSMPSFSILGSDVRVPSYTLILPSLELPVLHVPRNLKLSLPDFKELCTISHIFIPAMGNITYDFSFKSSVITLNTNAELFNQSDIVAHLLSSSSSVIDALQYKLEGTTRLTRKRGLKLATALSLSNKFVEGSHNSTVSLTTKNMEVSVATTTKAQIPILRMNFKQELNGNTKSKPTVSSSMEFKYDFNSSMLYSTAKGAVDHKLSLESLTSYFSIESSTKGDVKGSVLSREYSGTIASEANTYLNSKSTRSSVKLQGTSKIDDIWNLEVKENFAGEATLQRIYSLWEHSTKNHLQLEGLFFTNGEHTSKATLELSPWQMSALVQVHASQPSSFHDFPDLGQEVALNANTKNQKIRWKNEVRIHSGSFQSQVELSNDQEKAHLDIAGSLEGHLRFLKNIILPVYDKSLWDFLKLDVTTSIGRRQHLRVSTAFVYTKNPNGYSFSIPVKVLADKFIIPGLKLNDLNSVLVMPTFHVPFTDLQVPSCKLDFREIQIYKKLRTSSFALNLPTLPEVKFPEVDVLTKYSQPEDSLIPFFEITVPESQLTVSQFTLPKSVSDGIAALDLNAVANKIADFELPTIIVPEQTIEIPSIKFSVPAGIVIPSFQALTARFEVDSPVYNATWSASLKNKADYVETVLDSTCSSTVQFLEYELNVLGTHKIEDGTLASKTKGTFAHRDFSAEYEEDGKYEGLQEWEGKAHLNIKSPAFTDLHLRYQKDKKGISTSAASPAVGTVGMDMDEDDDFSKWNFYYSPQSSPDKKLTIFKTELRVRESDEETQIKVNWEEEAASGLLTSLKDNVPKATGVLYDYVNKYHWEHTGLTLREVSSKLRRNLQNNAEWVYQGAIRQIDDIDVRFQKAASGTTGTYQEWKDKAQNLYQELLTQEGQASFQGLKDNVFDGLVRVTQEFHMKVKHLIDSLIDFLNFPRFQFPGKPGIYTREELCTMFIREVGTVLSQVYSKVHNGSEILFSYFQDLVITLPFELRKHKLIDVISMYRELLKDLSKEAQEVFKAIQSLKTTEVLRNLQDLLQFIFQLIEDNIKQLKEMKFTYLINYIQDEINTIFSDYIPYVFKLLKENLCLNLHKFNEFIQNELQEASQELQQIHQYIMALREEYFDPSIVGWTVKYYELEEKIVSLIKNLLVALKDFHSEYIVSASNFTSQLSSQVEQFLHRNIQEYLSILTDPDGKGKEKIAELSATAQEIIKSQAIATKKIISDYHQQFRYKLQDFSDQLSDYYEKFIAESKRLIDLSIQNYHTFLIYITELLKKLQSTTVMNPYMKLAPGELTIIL

[4] = tested on: patients with atherosclerosis and evidence of carotid or aortic plaque inflammation; assay: Phase IIa: inflammatory and metabolic biomarkers; type: in vivo, human
Experimental: Incidence and severity of adverse events and clinical laboratory abnormalities as a measure of safety and tolerability of orticumab. Effects of orticumab on inflammatory and metabolic biomarkers. Serum and EDTA plasma samples for soluble biomarker analysis were obtained at baseline and on Day 29 and Day 85. Biomarker assays were performed using the HumanMAP1.6 multiplex panel from Rules Based Medicine (RBM). IL-6 and TNFα immunoassays were performed at Pacific Biomarkers using Quantikine R&D High Sensitivity ELISA. IL-10, MPO and oxLDL immunoassays were performed at Pacific Biomarkers using immunoassay kits from MSA, Prognostix, and Mercodia, respectively. Presence of anti-therapeutic antibodies to orticumab.

[5] = Second Phase I (Ph1): single-dose bioavailability after subcutaneous and intravenous administration; settings: for tmax: Median (min-max)
[6] = in vivo
[7] = tested on: patients with atherosclerosis and evidence of carotid or aortic plaque inflammation; assay: Phase IIa: arterial inflammation by FDG-PET/CT (index vessel MDS-TBR); type: in vivo, human; settings: versus placebo; single (1245 mg IV) and multiple infusion groups
Experimental: The study enrolled 147 participants (83% male; mean age 63.0±9.0 years) with atherosclerosis and evidence of carotid or aortic plaque inflammation, measured by FDG-PET/computed tomography (CT). Because there is poor correlation between serum LDL levels and both serum and plaque oxLDL levels, patients were enrolled with a relatively wide range of serum LDL levels (fasting LDL>60 mg/dL at screening, which includes patients both above and below National Cholesterol Education Program Adult Treatment Panel III treatment goals). 139 patients completed the study.
The study consisted of a 28-day screening period, a 78-day treatment period, and a 90-day follow-up period. […] During the screening period, patient acceptability for the study was assessed on the basis of medical history, concomitant medications, physical examination, and clinical laboratory test results. Once a patient passed this initial screening phase, acceptability for study participation was confirmed on the basis of a TBR>1.8 in the qualifying vessel, as quantified by FDG-PET/CT. […]
The primary outcome variable was change in index vessel MDS-TBR (most diseased segment-target to background ratio) measured by FDG-PET/CT from baseline to week 12. Arterial FDG uptake was assessed as target to-background ratio (TBR). […]

[8] = in vivo; remark: listed apart in the source
[9] = oxLDL-mediated cytokine release
[10] = Intravenous (Cohort A, Period 1), single dose 360 mg, Mean (SD)
[11] = Subcutaneous (Cohort A, Period 2), single dose 360 mg, Mean (SD)
[12] = Subcutaneous (Cohort B), single dose 360 mg, Mean (SD)

orticumab: recombinant human IgG1 against MDA-modified peptide 45 of ApoB100; heavy chain SEQ ID NO: 316, light chain SEQ ID NO: 317
spleen monocytes or B cells (SLE ApoE−/− mice [1]; end of experiment): no differences | plasma levels of oxidized LDL and plasma cytokines (SLE ApoE−/− mice [1]; mouse, in vivo): no differences | IC50 for MCP-1 inhibition ([2]; expressed as amount): ~4 mg | IC90 for MCP-1 inhibition ([2]; expressed as amount): 12.4 to 33 mg | IC50 for MCP-1 inhibition [2, 9]: 1.5 µg/mL | IC90 [2, 9]: 30 to 80 nM | IC90 for MCP-1 inhibition [2, 9]: 4.5 to 12 µg/mL | plaque area in aortic root (SLE ApoE−/− mice [3]; 1 mg IP weekly at weeks 18, 19, 20, vs control antibody): significantly smaller plaques | apoptosis in plaque areas (number of TUNEL cells) (SLE ApoE−/− mice [3]; 1 mg IP weekly x3): increased apoptosis | lipid staining, flat preps of the aorta (SLE ApoE−/− mice [3]; 1 mg IP weekly x3): reduction, although not significant | CD68+ area (SLE ApoE−/− mice [3]; 1 mg IP weekly x3, vs control antibody): reduced | binding specificity, oxidized vs native LDL (oxidized LDL): binds only to oxidized LDL and not to native LDL | interleukin 6 level ([4]; 4 weeks, multiple-dose group): nominal increase | tumor necrosis factor alpha level ([4]; 4 weeks, multiple-dose group): nominal increase | lipid parameters or high-sensitivity C-reactive protein level ([4]; either group): No significant decreases | AUC(0-inf) [5, 10]: 412 (87.3) μg * d/mL | AUC(0-last) [5, 10]: 380 (76.4) μg * d/mL | CL [5, 10]: 0.906 (0.168) L/d | Cmax [5, 10]: 84.3 (16.9) μg/mL | MRT [5, 10]: 16.9 (3.02) d | Vss [5, 10]: 15.2 (3.25) L | Vz [5, 10]: 26.3 (5.34) L | tmax ([5]; Intravenous (Cohort A, Period 1), single dose 360 mg): 0.04 (0.04-0.04) d | Cmax ([5]; Ph1 trial, single dosing, 360 mg IV): 84.3 µg/mL | Cmax ([5]; Ph1 trial, single dosing, 360 mg SC): 9.15 µg/mL | Cmax ([5]; Ph1 trial, single dosing, 360 mg SC 70-90 days after IV dosing): 15.1 µg/mL | AUC(0-last) [5, 11]: 215 (60.0) μg * d/mL | Cmax [5, 11]: 15.1 (4.50) μg/mL | AUC(0-inf) ([5]; Subcutaneous (Cohort A, Period 2), single dose 360 mg, Mean (SD), corrected by subtracting AUCresidual from Period 1): 236 (69.7) μg * d/mL | tmax ([5]; Subcutaneous (Cohort A, Period 2), single dose 360 mg): 3.99 (1.96-6.91) d | AUC(0-inf) [5, 12]: 194 (45.6) μg * d/mL | AUC(0-last) [5, 12]: 178 (39.6) μg * d/mL | Cmax [5, 12]: 9.15 (3.86) μg/mL | tmax ([5]; Subcutaneous (Cohort B), single dose 360 mg): 3.91 (1.00-4.02) d | t½ ([5]; both routes of administration): about 20 days | increase of SC bioavailability by a prior IV dose ([5]; in vivo): approximately 9% | median tmax ([5]; single SC dose): 96 h | Cmax of SC dose versus threshold ([5]; single SC dose 360 mg): falls within range of 4-12 μg/mL | maximum mean serum concentration ([5]; single SC dose 360 mg, Cohort A, Period 2): 15.1 µg/mL | maximum mean serum concentration ([5]; single SC dose 360 mg, Cohort B): 9.15 µg/mL | absolute bioavailability based on AUC(0-inf) ([5]; single SC dose of 360 mg): 47% | bioavailability ([5]; single SC dose of 360 mg after at least 70 days washout from an initial IV dose): 56% | ½-life ([5]; single dose 360 mg IV): 33.5 days | ½-life ([5]; single dose 360 mg SC): 24.3 days and 24 days | Cmax, max exposure IV vs SC ([5]; single dose at 360 mg (4.34 mg/kg)): 9.2 times | C ≥ 1 μg/mL [6]: Day 57 | C ≥ 4 μg/mL [6]: Day 15 | C ≥ 12 μg/mL [6]: Day 8 | t1/2 ([6]; iv, 360 mg): 20.3 (2.91) d | C ≥ 1 μg/mL ([6]; sc): Day 43 | C ≥ 4 μg/mL ([6]; sc): Day 15 | arterial inflammation (index vessel MDS-TBR), baseline to week 12 [7]: did not significantly reduce | SAEs during the study [8]: no SAEs | most frequently reported TEAEs ([8]; sc): mild intensity local site reactions
